Test results: paper PMC6704128, “Binding of the protein ICln to α-integrin contributes to the activation of ICl_(swell) current” (Scientific Reports, 2019)

Legend:
[1] = molecular target: T1, TcICln (truncated Canis familiaris ICln, ICln159X), N-terminal His6-tagged (Canis familiaris, UniProt P35521 1-158); assay: NMR titration; 1H-15N HSQC of 15N-labelled ICln (0.8 mM) without and with the integrin peptide (equimolar amount for TcICln); 50 mM K2HPO4, pH 6.6, 90% H2O/10% D2O, 25 °C, 800 MHz; conditions: both partners purified
T1 construct: ICln, Canis familiaris, truncation mutant ICln159X lacking the C-terminal part (stop at position 159); pleckstrin homology domain-like fold; NCBI NP_001003288.1; Uniformly 15N-labelled; The last residue (158) is worked out from the name ICln159X; also called truncated form of cICln; source: E. coli BL21(DE3), purified (IMAC HisTrap, Superdex 75)
T1 sequence (looked up): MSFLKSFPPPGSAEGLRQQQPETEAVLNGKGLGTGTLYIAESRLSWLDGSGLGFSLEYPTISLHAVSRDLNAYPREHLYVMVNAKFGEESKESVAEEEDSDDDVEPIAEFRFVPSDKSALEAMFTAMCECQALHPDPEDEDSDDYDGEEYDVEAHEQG

[2] = molecular target: T2, αIIbs-YFP (transmembrane and intracellular portion, amino acids 987-1039, of the human integrin αIIb chain, … (human, UniProt P08514-1 987-1039)); assay: FRET or BRET; acceptor photobleaching; living NIH-3T3 fibroblasts in isotonic solution; CFP donor, YFP acceptor; FRET efficiency in three plasma membrane ROIs of each cell; conditions: partners not purified
T2 construct: integrin αIIb chain, human, amino acids 987-1039 (transmembrane and intracellular portion); numbers count on NCBI NP_000410.2; The methods say 'YFP was fused to the Ct of ICln'; also called αIIb-short; αIIb short; source: NIH-3T3 fibroblasts or HEK293 Phoenix cells, transiently transfected (pEYFP-N1), in cells; not shown: YFP, C-terminal, kept
T2 sequence (P08514 987-1039): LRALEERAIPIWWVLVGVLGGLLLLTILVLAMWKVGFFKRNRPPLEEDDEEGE

[3] = molecular target: T2, αIIbs-YFP (transmembrane and …); assay: FRET or BRET; acceptor photobleaching; HEK293 Phoenix cells; FRET efficiency in 4-5 plasma membrane ROIs of each cell; conditions: partners not purified

| Binder | binding result [1] | ratio of the FRET efficiency to that of CFP and αIIbs-YFP [2] | ratio of the FRET efficiency to that of CFP and αIIbs-YFP [3] |
| --- | --- | --- | --- |
| MWKVGFFKRNR (integrin αIIb chain, human, residues 1018-1028; numbers count on NCBI NP_000410.2; also called integrin αIIb peptide with the KVGFFKR motif; source: synthetic peptide) [integrin peptide (1018)MWKVGFFKRNR(1028)] | binds |  |  |
| CFP-ICln (Canis familiaris ICln, wild type, CFP fused to the N-terminus) (natural protein, UniProt P35521 1-235, looked up, ICln, Canis familiaris (cDNA from the MDCK cell line), ORF of full length ICln; NCBI NP_001003288.1; The same construct was used in two cell lines (NIH-3T3 and HEK293 Phoenix); the assays tell them apart; also called CFP-ICln wt; cICln; source: NIH-3T3 fibroblasts or HEK293 Phoenix cells, transiently transfected (pECFP-C1), in cells; not shown: CFP, N-terminal, kept) MSFLKSFPPPGSAEGLRQQQPETEAVLNGKGLGTGTLYIAESRLSWLDGSGLGFSLEYPTISLHAVSRDLNAYPREHLYVMVNAKFGEESKESVAEEEDSDDDVEPIAEFRFVPSDKSALEAMFTAMCECQALHPDPEDEDSDDYDGEEYDVEAHEQGQGDIPTFYTYEEGLSHLTAEGQATLERLEGMLSQSVSSQYNMAGVRTEDSTRDYEDGMEVDTTPTVAGQFEDADVDH |  | 2.9 | 2.7 |
